# According to the DeepSol protein solubility set:
# Assay: soluble on expression in E. coli; label from the status in PepcDB or PDB records
row,Sequence,soluble on expression in E. coli
1,MSLKRDELKLDYQRHQFYEYFNSIFNYDILDASISENIYLLRKTTDKLFYIEFENQLFETVMFLSMKTLVLDINSFSKEIGNKSEAYEQYIQQIKEENGINNFFDRYPYLLKQINREVRLIEESYSLLFDRFLKDLSELRSCFNITEPLSNVEFSLGDSHSQKQTVVKIEFKGKSIYYKPKSYDSYNILLELISLLKSNNIPSFSLPESLIKADYCWQLGVDYINSNNDEVKRIYFKYGVLAAFSEIFSITDLHMENVIVSGGDLYLIDVETFFQRKLNVQTNNFEGITVDTYQRIYETSLSNGLFPVQFEKNSAPNISGISGKGGKRKKGKYELINKNRGDMKLVKTDYFQEDSYNIPTLNEKMVEPLDYANEVIAGFRECYTFLMTQRAKVKKILYGFPKLRTRAIFRNTSDYGKFLQASTNPKYLFSEKKRENLFSILYESKHIEQFIVDSEIKDLMNGDIPYFSMDPNGNVYNSLGTVIGNLGKTTSLFDNIATLNDERMKFTCELIGIVLKKPIKHWERKDGKSYYFPSISSKQSFNEEILRQREGHHHHHH,soluble
2,MSLKRLIMATMVTAILASSTVWAADNAPVAAQQQTQQVQQTQKTAAAAERISEQGLYAMRDVQVARLALFHGDPEKAKELTNEASALLSDDSTEWAKFAKPGKKTNLNDDQYIVINASVGISESYVATPEKEAAIKIANEKMAKGDKKGAMEELRLAGVGVMENQYLMPLKQTRNALADAQKLLDKKQYYEANLALKGAEDGIIVDSEALFVNEGHHHHHH,soluble
3,MSLKRMVNVLFAGVLAMTVLSCGEEKKGYTLNGEISDVKDGMVYLKKYQDKSFIAVDSAVITDGTFKFEGVCTEPLAYGLTTFRDSKRPLVFFLDNEKMQLKMNESEKILTVTGSAINDLYAQNAPLTRQDGYSIDSLVAVHPASAVTPYFIVKDFAYKLNLEEMKALRAKLDASLDETMYVSQIDGFIKRMKDIQVGAVAPDFTLPDVDGNPVTLSGLRGKYVLIDFWASWCPDCRKENPNIVAAWNKYKDKNFTILGVSLDRKKEPWLAAIEKDQLAWTHVSDLKDWKSDAAVQYAIRWIPMNFLLDPNGVILAVGLEGEALQQKLDEVLKEGHHHHHH,not soluble
4,MSLKRVSVIICMFLYFVLTDKAHAQRCLPGTKGLRITAGMTDGFHTADKRNELGYHFGMGMDRYVNGCHKWVFSGEYLQKYYPYKDIRVPVSQFTAEGGYYYNFLSDANKVFLCYAGGSVLAGYETVNWGTGMLFDGSRLCVGDAFVYGGAVSLEIETYLANQVVLLFHARERCLWGNDSGHFHFQFGVGLKIILNEGHHHHHH,not soluble
5,MSLKSIAQEHDCLLIDLDGTVFCGRQPTGGAVQSLSQVRSRKLFVTNNASRSADEVAAHLCELGFTATGEDVVTSAQSAAHLLAGQLAPGARVLIVGTEALANEVAAVGLRPVRRFEDRPDAVVQGLSMTTGWSDLAEAALAIRAGALWVAANVDPTLPTERGLLPGNGSMVAALRTATGMDPRVAGKPAPALMTEAVARGDFRAALVVGDRLDTDIEGANAAGLPSLMVLTGVNSAWDAVYAEPVRRPTYIGHDLRSLHQDSKLLAVAPQPGWQIDVGGGAVTVCANGDVDDLEFIDDGLSIVRAVASAVWEARAADLHQRPLRIEAGDERARAALQRWSLMRSDHPVTSVGTQEGHHHHHH,not soluble
6,MSLKSVIIGTAGHIDHGKTSLIKALNGFEGDSLKEEQERQITINLSFSNLKLKDKNISFIDVPGHKDLVKTMVSGAFGFSVCLFVVDINEGLKEQSLEHLEILKILDIKNIILVLSKCDLCENIEQKSVEILEELKNLDYPILKVFHTSIKNNQGIEELKNYLYTIENKENDEELIFHYYIDRVFSLKGIGTVVTGSLNEGSITLNEKIICLDTQKELIVKNIQNHDTNLEQIKACNRVALSLNCDYKELKKGYLLSKKGYFKAFKECDALVKAKNLQNSKMIFCVGSRQIECKINILKKLENDEFFVHFSFDKNVFLSFDEAFILLQNNRVIGGGKVLNPLSEPLKKEQKNKFLMFLKNKDFKAAFSFLKDAHKYGFGLLSSYQRFKLSHQKALKLAKELNQVFVDEKNLNVYHLQSLEEIKNFIKFILEKNPYAMLSAHSLALRITWASENFCELGLKEMSNLLDFQNGIYFKKGIDFEKLQEKNNNQMYEILKKQGIKPEAPYNLYDFLELDREGHHHHHH,soluble
7,MSLKTITFFKRVLASAALVSVCGFACATNNGKQFIHNDTMEGGKLVCREIYAMNDAASGILNPVKMYKYSYDTDQQKTVKSTYAWNIFKNTWETESRTVISRYETETSVEYSVWNKEKGSFDLSKKYIYITDNNNQLIAQYAYKMNSRTNQWILEKDALTPIYENIYATTREGHHHHHH,soluble
8,MSLKTSHLKEVPETLAMRESLRDRCAQVAAKLDRSHPMTKDEMEQISRRMLEEADLPESYLGWVMVMISSEFWADALASVPPERRLFLLPHCLKHAEGCPAEYDQFGMNCKECGACSIADFRSIAEDMGYRVLVAEGSPVVMKIIVGGYVDAVVGVACLNVLEKAIDKVLLAGIPCMAVPLLSSDCRNTKVDEPWVEQMIRTPYKPAAAKTKSYVHLMRAAGLLFEDTLFERLAEGHHHHHH,not soluble
9,MSLKVGFDNQKYLKMQSEHIRERISKFDNKLYLEFGGKLFDDYHASRVLPGFEPDSKLKMLLELKDQAEIVIVISAIDIEKSKVRGDLGITYDSDVLRLIDAFQSKGLYVGSVTITQYSGQSSADLFKSKLEALGVKVYLHYIIPGYPNNISLILSEDGYGKNEFIQTTRPLVVITAPGPGSGKMATCLSQLYHEHKRGVRAGYAKFETFPIWNLSLKHPVNVAYEAATADLNDVNMIDPCHLEAYGVTAVNYNRDVEIFPVLKAIFLRIDEHCPYKSPTDMGVNMVGNCIIDDQACRDASKQEILRRYYQTLCNVINGTSDGDEVYKLELLLNQVSVSAEDRPVIKAANDLADLNKSPAVAMQLADESIITGKTSELLGASAAVLLNALKALAGIPHETHVISPLAIGPIQQLKTQYLGSSNPRLHTDEVLIALSISAKEDENARKAMEQLPHLKGCEVHTSVILSEVDRKVFHKLGVHLTSEPTYENKKLFHEGHHHHHH,soluble
10,MSLKVWGRGSSFNVQKVLWLVGELGLSHRHIPAGGDHGGLDEPSFLAMNPHGRVPVIDDGGVMVWESHAILRYLAARYGGSEWWPASPVDRAQADGWMDWAQTALQRDFLTGVFWGWYRTPEPERDNDAIRTALAACAKHFLLLDQILANRPFLGGDQPGLADIPCGTHLFRYYALEIDRPRTPNVEAWYARLQARPAYRKAVMIPFDEMKGRLAYEGHHHHHH,soluble
11,MSLKWAHPIPFPETGCVLVATEKLDGYRTFARTVVLLLRAGTRHPQEGPFGVVINRPLHKNIKHMKSTKTELATTFSECSLYFGGPLEASMFLLKTGDKTKIPGFEEVMPGLNFGTRNSLDEAAVLVKKGVLKPQEFRFFVGYAGWQLDQLREEIESDYWHVAACSSDLICGASSENLWEEILQLMGGQYSELSRKPKLDIEGHHHHHH,soluble
12,MSLKYEKIAFFRFFGRLNDFFRNSERIKTHRFTGFQTVKDRIEALGVPHVEVSLITLNGKPVGFDHMVEDGELFFVYPEFQNIEIPEDWLVTPRYIGEPRFVLDIHLGKLARLLRMLGFEAVFGEESDEKLCWMAVKKKAILLSRDTGLLKRKELVFGYYVRNTDPKEQLVEVVERYDLKKWMKPFTRCIECGVELEEVPKEAVKNRVPPKVYGFFNEFARCPVCGRIYWKGSHYDHMVEFIKSNINKGEGHHHHHH,soluble
13,MSLLIDKFGRPVTNLRISLTKECNLNCFYCHREGQQDGERTMTPEEIERIVRIASRLGIRNVKLTGGEPTVRPDIYEIIQRIRPYVVDLSMTTNGTTLYASAEKLKEAGLDRVNISLDTLDRKKYKMITGYDVLDQVLKGIRRATNLFYPVKLNMVVMRGINDDEIWDMIRFAGEVNAILQLIEIEVPREMENSQFFKDFFYPLKPLEEKFEKIAVEIRERKMHRRRKYFLPVDGKMVEVEVVRSMHNTTFCMNCTRLRLTADGYLKTCLLRKDDLIDILGPIRRGATDDELVKIFKRAVQLRKPYWINEGHHHHHH,soluble
14,MSLLIVQKYGGTSMGSIERIHNVAQRVLESVTLGHQVVVVVSAMSGETDRLLEFGKNFSHNPNKREMDRIVSVGELVSSAALSMALERYGHRAISLSGKEAGILTSSHFQNAVIQSIDTKRITELLEKNYIVVIAGFQGADIQGETTTLGRGGSDLSAVALAGALKAHLCEIYTDVDGVYTTDPRIEEKAQKIAQISYDEMLELASMGAKVLLNRSVELAKKLSVKLVTRNSFNHSEGTLIVAEKDFKGERMETPIVSGIALDKNQARVSMEGVEDRPGIAAEIFGALAEYRINVDMIVQTIGRDGKTDLDFTIVKTQIEETKQALKPFLAQMDSIDYDENIAKVSIVGVGMKSHSGVASIAFKALAKDNINIMMISTSEIKISVLIDIKYAELAVRTLHAVYQLDQEGHHHHHH,not soluble
15,MSLLKNVEVFWQNFLDKHELDMLMPDVWMFGDGSSEMGNRLGQLVVSGRKTATCSSLDIYKMEEEQLPKAGQYDIILDGQSQPLAIIRTTKVEIMPMNKVSESFAQAEGEGDLTLDYWYEEHARFFKEELAPYQLQFYPDMLLVCQSFEVVDLYTEKEEGGSHHHHHH,soluble
16,MSLLNIKFTDNAVDYLKRREILDKILILITDDGGGKYSIQGGSCSMGAHFSIIWLDKVDPDYPVKIANEQNVKIYTSDFDKTMLGPNMVMDYNAGSLSLSSDEGLLDGSVDIGNGAALLKANKNVQMGINRQCEGHHHHHH,soluble
17,MSLLRQRFVFDTTALTDSQAWESEGCTTLCEGMSAILHRVAQARLHLGISCYVPYPSVYNEIRDFVRNNNCDIAILGKIDTWLVKKTPDRYRVKIPSKIFYEYVDYMRSRINKGMNVSEEAIWEAVSRCLSISATGEGREQMREEIEREVVGSIIRKFREKYRAALRYGILDSAPDIDVLLLAKDLDAAVVSQDLGIQRWAEQLGLRFMEARAFPQMVREYMSFVPLHTEELEDRMVEGHHHHHH,soluble
18,MSLLSEENEFLFDLNEIPEKTVYSDDGDEFLFDLNKIPPREETVNSSDEDFADHLHRRNQATKRKKKLRKRPKVFRHIEKVISFSFYLVLRASSFLFLDLNWGLRMDTDPYQELRMDTDHMTYEQLLQLCNNMGYENSGVKASNIDRCLRNTKPSEFQSLADKICCICQDGFQKRAGVGKLNCGHNFHVNCVKPWILTKK,soluble
19,MSLLTPEQIAAAQKANIESLFGLTTKAFEGVEKLIELNLQVVKSTLAESQENVQRALSVKDAQELLALQASLTQPIAEKVLAYGRHVYEIASATQAEFAKVAEAQYEEQNRKVQALVDNVAKNAPAGSETAVAALKSAINAANTTYETVQK,not soluble
20,MSLLTQIKGEWVLGFADGNHRMLRDASVVYEGERIVHVGTEFDGVADRVIDARGCLVAPGFIDTHVHSGHRALHKLLADGGRPDLFGQPYMDVTIARDGTRIKGYPNYLSREEAAVDPGIALHAAFTVAELLRNGVTTFVELGGHVMVQEALWRECERLGVRGYLGAGYDSGRWAADDQGRLRRVPYPDGGDHLFEEAVAFIKRVQAAGNDLVNGILVPREVENCSVDILRRTVQAAQELGVPMATHAGYNVIEFYETVREHRMTPIELLHSVGMLGPRLNIGHANLISDSPRLNYSGGRDLALMGEHRVSISHCPINIVRRARVLDSWKKYREAGVNLTIGSDTYPRDMVMNMRTASYHGKVMSHDLTAASAAEVFEAATLGGARSLGRTDIGRLEPGARADVIAINVGRQDVLRYGPIWDPIRSLVECGVGDDVELVVTNGQVRMEQGRIVGVDLGALRAEAQQFADNVWRDLQDWDPLRRTAQAMCPPLFCPDCMEGHHHHHH,soluble
21,MSLLTVGIVDDNPRDLEKLELIVNNMENVELILKANSADEVYHSIQKTPVDLLITDIEMPGMSGYQLADFIQLNNMKTAVIFVTAKSGYAVHAFELNVHDYILKPFNPDRLIQSIDRFTEKKDAGRVTGRLFIRSDGDLVVVPKAEIIFLERTGRTTTIHTINETYETYQSLGELEGDIRESMFIRSHRSFIINLQYVKRFASYSKKSFVVIFEGSSGKALVTKEKLKYLQENYEGHHHHHH,not soluble
